The experiment has as its target NMDA receptor on rat hippocampal neurons (E18 Sprague Dawley primary culture) (rat), P35439. In words: cell-based or functional assay.

For the molecule GEDDYQDAQDLIRDKSN [Peptide SEQ ID NO: 3 (…)], the IC50 of inhibition of NMDA receptor-evoked current (dose-response curve, FIG. 3H) amounted to 156 µM; the inhibition of NMDA receptor-evoked current (whole-cell patch clamp), 10 µM peptide turned out to be 14%; the inhibition of NMDA receptor-evoked current (whole-cell patch clamp), 100 µM peptide is 40%; the inhibition of NMDA receptor-evoked current (whole-cell patch clamp), 500 µM peptide stood at 66.5%.

(Values after US20190085028A1.)
